The record followed here is publication PMC7340788, “Structure of the yeast Swi/Snf complex in a nucleosome free state” (Nature Communications, 2020).

First the molecules themselves.
B1: Swi1 (natural protein, S. cerevisiae, UniProt P09547 1-1314, looked up)
chain: MDFFNLNNNNNNNNTTTTTTTTNNNNTNNNNTNNNNNPANNTNNNNSTGHSSNTNNNTNNNNTNTGASGVDDFQNFFDPKPFDQNLDSNNNNSNSNNNDNNNSNTVASSTNFTSPTAVVNNAAPANVTGGKAANFIQNQSPQFNSPYDSNNSNTNLNSLSPQAILAKNSIIDSSNLPLQAQQQLYGGNNNNNSTGIANDNVITPHFITNVQSISQNSSSSTPNTNSNSTPNANQQFLPFNNSASNNGNLTSNQLISNYAASNSMDRSSSASNEFVPNTSDNNNNSNNHNMRNNSNNKTSNNNNVTAVPAATPANTNNSTSNANTVFSERAAMFAALQQKQQQRFQALQQQQQQQQNQQQQNQQPQQQQQQQQNPKFLQSQRQQQQRSILQSLNPALQEKISTELNNKQYELFMKSLIENCKKRNMPLQSIPEIGNRKINLFYLYMLVQKFGGADQVTRTQQWSMVAQRLQISDYQQLESIYFRILLPYERHMISQEGIKETQAKRIFLQQFLQELLKKVQQQQQAAALANANNNINSASSAPTPAAPGASVPATAAPGTEAGIVPVSANTPKSLNSNININVNNNNIGQQQVKKPRKQRVKKKTKKELELERKEREDFQKRQQKLLEDQQRQQKLLLETKLRQQYEIELKKLPKVYKRSIVRNYKPLINRLKHYNGYDINYISKIGEKIDSNKPIFLFAPELGAINLHALSMSLQSKNLGEINTALNTLLVTSADSNLKISLVKYPELLDSLAILGMNLLSNLSQNVVPYHRNTSDYYYEDAGSNQYYVTQHDKMVDKIFEKVNNNATLTPNDSNDEKVTILVDSLTGNQLPTPTPTEMEPDLDTECFISMQSTSPAVKQWDLLPEPIRFLPNQFPLKIHRTPYLTSLKKIKDEIDDPFTKINTRGAEDPKVLINDQLSTISMILRNISFSDNNSRIMSRNFYLKRFISDLLWLVLIHPENFTCNRKILNFKKDLVIVLSNISHLLEIASSIDCLLILILVISFGQPKLNPMASSSSFGSESLTFNEFQLQWGKYQTFGVDILAKLFSLEKPNLNYFKSILLNKNTGNNLYDRNSNNNHKDKKLLRRLLNLYNDNNKNNNNRHNLLNDVVSFLFSAIPLQQVLSQSADPSLLIDQFSPVISQSLTSILVIVQKILPLSNEVFEISENNSDSNSNNNGNKDSSFNFNKNLPFVWLSSEENIGSGLLKLSEIILNINNSTSKNTLLQQQNYSKVLLPSINISCVQLIKCLVEKSICFENCLNNDPEILKKIASIPNLFPTDLEIFQLFTNPSVDIQIINQYQLLYNLKNDILTNLE
notes: Swi1, subunit of the S. cerevisiae Swi/Snf complex; endogenous protein; Only part of the chain is modelled (C-terminus with seven ARM repeats, α1, β1); For cryo-EM the complex was cross-linked with 1 mM BS3; source: endogenous, S. cerevisiae; purified as part of the Swi/Snf complex through Snf6-3Flag (ANTI-FLAG M2 resin, Superose 6)
B2: Snf6 with a C-terminal 3-Flag tag (natural protein, S. cerevisiae, UniProt P18888 1-332, looked up)
chain: MGVIKKKRSHHGKASRQQYYSGVQVGGVGSMGAINNNIPSLTSFAEENNYQYGYSGSSAGMNGRSLTYAQQQLNKQRQDFERVRLRPEQLSNIIHDESDTISFRSNLLKNFISSNDAFNMLSLTTVPCDRIEKSRLFSEKTIRYLMQKQHEMKTQAAELQEKPLTPLKYTKLIAAAEDGSRSTKDMIDAVFEQDSHLRYQPDGVVVHRDDPALVGKLRGDLREAPADYWTHAYRDVLAQYHEAKERIRQKEVTAGEAQDEASLQQQQQQDLQQQQQVVTTVASQSPHATATEKEPVPAVVDDPLENMFGDYSNEPFNTNFDDEFGDLDAVFF
notes: Snf6, subunit of the S. cerevisiae Swi/Snf complex; expressed from its own locus; Bait of the purification; For cryo-EM the complex was cross-linked with 1 mM BS3; source: endogenous locus tagged by homologous recombination, S. cerevisiae; purified (ANTI-FLAG M2 resin, FLAG peptide elution, Superose 6); not shown: 3-Flag, C-terminal, kept
B3: Snf5 (natural protein, S. cerevisiae, UniProt P18480 1-905, looked up)
chain: MNNQPQGTNSVPNSIGNIFSNIGTPSFNMAQIPQQLYQSLTPQQLQMIQQRHQQLLRSRLQQQQQQQQQTSPPPQTHQSPPPPPQQSQPIANQSATSTPPPPPAPHNLHPQIGQVPLAPAPINLPPQIAQLPLATQQQVLNKLRQQAIAKNNPQVVNAITVAQQQVQRQIEQQKGQQTAQTQLEQQRQLLVQQQQQQQLRNQIQRQQQQQFRHHVQIQQQQQKQQQQQQQHQQQQQQQQQQQQQQQQQQQQQQQQQQQQQQQQQQQQQGQIPQSQQVPQVRSMSGQPPTNVQPTIGQLPQLPKLNLPKYQTIQYDPPETKLPYPTYWSDKKADTDTLLYEQIIQRDKINKYSLIRETNGYDPFSIYGFSNKEYISRLWHTLKYYQDLKNTRMKSITSTSQKIPSASIWGNGYSGYGNGITNTTTRVIPQVEVGNRKHYLEDKLKVYKQAMNETSEQLVPIRLEFDQDRDRFFLRDTLLWNKNDKLIKIEDFVDDMLRDYRFEDATREQHIDTICQSIQEQIQEFQGNPYIELNQDRLGGDDLRIRIKLDIVVGQNQLIDQFEWDISNSDNCPEEFAESMCQELELPGEFVTAIAHSIREQVHMYHKSLALLGYNFDGSAIEDDDIRSRMLPTITLDDVYRPAAESKIFTPNLLQISAAELERLDKDKDRDTRRKRRQGRSNRRGMLALSGTSASNTSMNGVHNTVAAGNASSLPPGEILLPDIADIPRTFRTPVPSTLMPGGVDVGPSVESYELRNTTTYKSRPDRPKPVSPPCYIIDHIPGHSLLLSIKLPGKVNTKEEFAAAPNDTSSGTNAMLPSPESLKTKLNSNIRAGVTIPSIPNPIANHTVTNSPNPTLQPVIPGGAASKSVPTPSLPIAPPVAPHDSEATLLTNSNNGSSNNNTQNT
notes: Snf5, subunit of the S. cerevisiae Swi/Snf complex; endogenous protein; For cryo-EM the complex was cross-linked with 1 mM BS3; source: endogenous, S. cerevisiae; purified as part of the Swi/Snf complex through Snf6-3Flag (ANTI-FLAG M2 resin, Superose 6)
B4: Snf12 (natural protein, S. cerevisiae, UniProt P53628 1-566, looked up)
chain: MSKVMKPSNGKGSRKSSKAATPDTKNFFHAKKKDPVNQDKANNASQITPTVPHSHPSDMVIPDHLAELIPELYSFQQLVDSEKRLDHFIHLRNLHMKRMVAQWERSKLSQEFLYPHLNFPNVKFLRIFISNVSENQPWQMDTNNEADLMALENATWTMRIEGRLLDNVQANDPAREKFSSFIESIVVDFKNKENDNVPSTKFNAAPEENATEGPSDKKLNLNLPLQFSLPNGDNSTTTNTDQNNATMGEETAKKDMSSTTPKLESVKWQYDPNNPVDFDGLDIKRVGSENVECTISILRKSSPEEPFMSYSPQLTAIIGLKSGTSHDAIFSIYKYIHLNELLTNDESAFENLMGNRNNHNSNTSTSKMLDAASSQVSIVKLDTQLITLLPSSLKESSPDTMKLTDLLSLINSTHLLPLQPIEIDYTVRVDKASTYGELVLDIEVPDVNALKFNNTQRESQIGAAELNENARELEQIKPKIALQDKEITSVLSNLHESNKRYRFFKKISEDPVKALNECIASTSNALKVLSGDEGYNEDMVRRANFYKENEAMLRENIEVILSNGRM
notes: Snf12, subunit of the S. cerevisiae Swi/Snf complex; endogenous protein; Part of the SWIB domain was homology modelled; For cryo-EM the complex was cross-linked with 1 mM BS3; source: endogenous, S. cerevisiae; purified as part of the Swi/Snf complex through Snf6-3Flag (ANTI-FLAG M2 resin, Superose 6)

Experiment in all cases: cryo-EM structure; endogenous Swi/Snf complex purified as a whole through Snf6-3Flag, nucleosome-free, cross-linked with 1 mM BS3, 20 mM HEPES pH 7.4, 350 mM NaCl; 4.1 Å average, 2.9 Å for the base module
What all share (details): both partners purified

In one test the target is T1, Snf2 (S. cerevisiae, UniProt P22082 1-1703).
T1 construct: Snf2, ATPase-containing subunit of the S. cerevisiae Swi/Snf complex; endogenous protein; Only the preHSA domain and the HSA helix are seen in the map; the ATPase domain is absent from the structure; For cryo-EM the complex was cross-linked with 1 mM BS3; source: endogenous, S. cerevisiae; purified as part of the Swi/Snf complex through Snf6-3Flag (ANTI-FLAG M2 resin, Superose 6)

The test “Swi1” addresses B1.
In the next test the target is T2, Swi3 (S. cerevisiae, UniProt P32591 1-825).
T2 construct: Swi3, subunit of the S. cerevisiae Swi/Snf complex; endogenous protein; two copies (chains A and B) in the model; also called Swi3A; Swi3B; source: endogenous, S. cerevisiae; purified as part of the Swi/Snf complex through Snf6-3Flag (ANTI-FLAG M2 resin, Superose 6)
T2 sequence (looked up): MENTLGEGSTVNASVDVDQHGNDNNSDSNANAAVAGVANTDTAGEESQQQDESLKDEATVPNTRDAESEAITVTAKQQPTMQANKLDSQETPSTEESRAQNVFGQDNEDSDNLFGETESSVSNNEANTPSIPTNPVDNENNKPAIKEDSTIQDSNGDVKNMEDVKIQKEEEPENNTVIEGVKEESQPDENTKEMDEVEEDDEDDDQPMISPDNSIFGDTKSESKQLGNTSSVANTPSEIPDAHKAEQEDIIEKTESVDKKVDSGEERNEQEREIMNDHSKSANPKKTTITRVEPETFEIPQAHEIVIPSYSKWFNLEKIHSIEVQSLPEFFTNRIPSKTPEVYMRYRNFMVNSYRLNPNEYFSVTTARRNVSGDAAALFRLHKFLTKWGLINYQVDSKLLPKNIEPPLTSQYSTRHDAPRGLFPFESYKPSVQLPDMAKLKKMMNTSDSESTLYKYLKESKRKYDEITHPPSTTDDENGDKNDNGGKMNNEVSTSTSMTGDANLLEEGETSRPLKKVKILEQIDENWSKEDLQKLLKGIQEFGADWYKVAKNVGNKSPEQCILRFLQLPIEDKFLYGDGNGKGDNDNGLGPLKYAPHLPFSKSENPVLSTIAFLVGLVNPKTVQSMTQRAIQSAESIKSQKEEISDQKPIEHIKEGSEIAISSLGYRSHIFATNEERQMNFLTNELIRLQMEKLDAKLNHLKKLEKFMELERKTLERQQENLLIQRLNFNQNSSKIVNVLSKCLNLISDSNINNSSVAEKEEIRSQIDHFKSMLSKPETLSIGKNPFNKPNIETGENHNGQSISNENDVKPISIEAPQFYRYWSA

T1 sequence (P22082 whole entry, the tested form may be a part): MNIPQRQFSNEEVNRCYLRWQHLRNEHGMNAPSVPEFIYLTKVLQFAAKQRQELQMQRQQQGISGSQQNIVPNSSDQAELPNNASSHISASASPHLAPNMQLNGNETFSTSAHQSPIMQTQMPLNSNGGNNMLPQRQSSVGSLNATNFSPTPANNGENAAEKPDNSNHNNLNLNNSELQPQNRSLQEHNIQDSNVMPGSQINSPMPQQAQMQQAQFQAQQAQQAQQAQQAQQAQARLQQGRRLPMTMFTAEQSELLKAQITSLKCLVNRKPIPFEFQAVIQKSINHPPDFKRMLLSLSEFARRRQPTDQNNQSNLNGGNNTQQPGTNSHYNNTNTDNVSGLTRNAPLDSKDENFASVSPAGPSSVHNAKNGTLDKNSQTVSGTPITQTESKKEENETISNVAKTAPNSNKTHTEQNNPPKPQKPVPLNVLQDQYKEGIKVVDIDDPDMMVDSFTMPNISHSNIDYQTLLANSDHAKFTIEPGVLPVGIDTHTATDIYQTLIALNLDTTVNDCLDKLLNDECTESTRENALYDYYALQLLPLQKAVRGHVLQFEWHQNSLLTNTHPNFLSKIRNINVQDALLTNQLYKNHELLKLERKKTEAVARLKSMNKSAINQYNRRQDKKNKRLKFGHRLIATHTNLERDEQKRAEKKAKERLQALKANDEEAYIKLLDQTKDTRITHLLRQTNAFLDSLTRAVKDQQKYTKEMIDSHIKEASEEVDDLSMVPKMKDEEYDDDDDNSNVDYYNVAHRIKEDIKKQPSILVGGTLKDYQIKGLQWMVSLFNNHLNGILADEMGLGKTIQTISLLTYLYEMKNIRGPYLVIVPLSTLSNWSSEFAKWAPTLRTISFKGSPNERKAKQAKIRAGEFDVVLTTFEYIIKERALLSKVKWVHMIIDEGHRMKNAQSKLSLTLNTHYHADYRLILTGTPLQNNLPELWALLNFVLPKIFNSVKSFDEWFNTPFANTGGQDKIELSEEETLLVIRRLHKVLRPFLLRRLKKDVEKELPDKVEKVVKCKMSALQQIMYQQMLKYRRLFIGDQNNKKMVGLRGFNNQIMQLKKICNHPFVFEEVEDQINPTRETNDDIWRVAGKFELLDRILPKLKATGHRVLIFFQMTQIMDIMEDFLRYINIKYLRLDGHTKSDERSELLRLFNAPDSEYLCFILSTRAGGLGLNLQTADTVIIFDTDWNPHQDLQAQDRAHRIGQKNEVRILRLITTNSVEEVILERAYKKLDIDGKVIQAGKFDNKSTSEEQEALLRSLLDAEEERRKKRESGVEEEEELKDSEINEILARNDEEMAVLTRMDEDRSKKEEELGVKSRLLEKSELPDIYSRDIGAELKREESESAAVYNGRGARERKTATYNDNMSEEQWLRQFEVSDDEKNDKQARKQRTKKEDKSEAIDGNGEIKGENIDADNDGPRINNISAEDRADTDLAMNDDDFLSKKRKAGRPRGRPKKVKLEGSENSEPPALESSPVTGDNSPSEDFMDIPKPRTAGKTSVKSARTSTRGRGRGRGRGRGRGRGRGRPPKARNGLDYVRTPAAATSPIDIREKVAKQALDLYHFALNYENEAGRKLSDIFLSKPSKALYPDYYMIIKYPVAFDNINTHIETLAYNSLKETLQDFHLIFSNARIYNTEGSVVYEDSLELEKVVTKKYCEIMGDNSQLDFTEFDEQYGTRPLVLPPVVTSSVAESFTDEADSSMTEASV

As for B1, the binding result in the test with Snf2 is recorded as “binds”.
With B2, the binding result with Snf2 and with Swi1 was “binds” each time.
Take B3: the binding result with Snf2 and with Swi1 was “binds” throughout.
For the molecule B4, the binding result with Snf2, in the test with Swi3 and with Swi1 was “binds” in each case.
